Assay results reported in the Immune Epitope Database (IEDB).
Blank lines part the entries; values can stand above or below the sequence they belong to.

Assays:
HLA-A*01:01 [1] = experiment: IEDB peptide-MHC binding, purified MHC/competitive/radioactivity; filed as Kd, often an IC50 or EC50 that approximates it; ≥ and ≤ were set here for values at or beyond the usual limits of such assays
HLA-A*24:02 = experiment: as above
HLA-A*30:02 = experiment: as above
HLA-A*26:01 = experiment: as above
HLA-A*29:02 = experiment: as above
HLA-A*23:01 = experiment: as above
HLA-B*58:01 = experiment: IEDB peptide-MHC binding, purified MHC/direct/fluorescence; filed as Kd, often an IC50 or EC50 that approximates it; ≥ and ≤ were set here for values at or beyond the usual limits of such assays; conditions: source organism: Homo sapiens
HLA-B*07:02 = experiment: as above; conditions: source organism: Homo sapiens
HLA-A*69:01 = experiment: as above; conditions: source organism: Homo sapiens
HLA-B*53:01 = experiment: IEDB peptide-MHC binding, purified MHC/competitive/radioactivity; filed as Kd, often an IC50 or EC50 that approximates it; ≥ and ≤ were set here for values at or beyond the usual limits of such assays
HLA-B*08:01 = experiment: as above
HLA-A*01:01 [2] = experiment: IEDB peptide-MHC binding, purified MHC/direct/fluorescence; filed as Kd, often an IC50 or EC50 that approximates it; ≥ and ≤ were set here for values at or beyond the usual limits of such assays; conditions: source organism: Homo sapiens
HLA-A*11:01 = experiment: as above; conditions: source organism: Homo sapiens
HLA-A*03:01 = experiment: as above; conditions: source organism: Homo sapiens
HLA-B*44:03 = experiment: IEDB peptide-MHC binding, purified MHC/competitive/radioactivity; filed as Kd, often an IC50 or EC50 that approximates it; ≥ and ≤ were set here for values at or beyond the usual limits of such assays; conditions: source organism: Dengue virus 2 Jamaica/1409/1983
HLA-B*40:01 = experiment: as above; conditions: source organism: Dengue virus 2 Jamaica/1409/1983
HLA-B*44:02 = experiment: as above; conditions: source organism: Dengue virus 2 Jamaica/1409/1983
[3] = source organism: SARS coronavirus Tor2
[4] = source organism: Dengue virus 1 Brazil/97-11/1997
[5] = source organism: Dengue virus 2 Jamaica/1409/1983
[6] = source organism: Vaccinia virus WR
[7] = source organism: Mammarenavirus guanaritoense
[8] = source organism: Dengue virus 4 Philippines/H241/1956
[9] = source organism: Lassa virus Josiah
[10] = source organism: Mammarenavirus lassaense
[11] = source organism: Mammarenavirus brazilense
[12] = source organism: Mammarenavirus choriomeningitidis

Sequence: VFQSATKII
Kd (HLA-A*01:01 [1]; [3]): ≥ 59200 nM
Kd (HLA-A*24:02; [3]): 0.211 nM
Kd (HLA-A*30:02; [3]): 199 nM
Kd (HLA-A*26:01; [3]): ≥ 43600 nM
Kd (HLA-A*29:02; [3]): 0.0425 nM
Kd (HLA-A*23:01; [3]): 0.162 nM

Kd (HLA-B*58:01): 18800 nM
Kd (HLA-B*07:02): 146 nM
Kd (HLA-A*69:01): 5060 nM
Sequence: RPAKSMDSL

Sequence: MYIFFASFYY
Kd (HLA-A*01:01 [1]; [3]): 6700 nM
Kd (HLA-A*24:02; [3]): 6650 nM
Kd (HLA-A*30:02; [3]): 9.07 nM
Kd (HLA-A*26:01; [3]): 575 nM
Kd (HLA-A*29:02; [3]): 0.449 nM
Kd (HLA-A*23:01; [3]): 722 nM

Sequence: FPQSNAVIQ
Kd (HLA-B*53:01; [4]): 527 nM

Sequence: MGLGKGWPL
Kd (HLA-B*08:01; [5]): 8.72 nM

Sequence: KPAVRFAIL
Kd (HLA-B*08:01; [6]): 1430 nM

Sequence: LKGMSYAMCL
Kd (HLA-B*08:01; source organism: Dengue virus 3 Singapore/8120/1995): 438 nM

Kd (HLA-A*01:01 [2]): 6420 nM
Kd (HLA-B*58:01): 326 nM
Kd (HLA-A*11:01): 1660 nM
Kd (HLA-B*07:02): ≥ 33100 nM
Kd (HLA-A*03:01): 852 nM
Sequence: ILGPPGSVY

Sequence: SNKRKVLAI
Kd (HLA-B*08:01; [6]): 1.85 nM

Sequence: SINVKHTSV
Kd (HLA-B*08:01; [6]): 13.3 nM

Sequence: CKDGHVETFY
Kd (HLA-A*01:01 [1]; [3]): 8080 nM
Kd (HLA-A*24:02; [3]): ≥ 70300 nM
Kd (HLA-A*30:02; [3]): 506 nM
Kd (HLA-A*26:01; [3]): 3870 nM
Kd (HLA-A*29:02; [3]): 171 nM
Kd (HLA-A*23:01; [3]): ≥ 70000 nM

Sequence: MFFIRFGKM
Kd (HLA-B*08:01; [6]): 31.9 nM

Sequence: RYNLPTMCDI
Kd (HLA-A*01:01 [1]; [3]): ≥ 70400 nM
Kd (HLA-A*24:02; [3]): 601 nM
Kd (HLA-A*30:02; [3]): 90 nM
Kd (HLA-A*26:01; [3]): ≥ 69700 nM
Kd (HLA-A*29:02; [3]): 5260 nM
Kd (HLA-A*23:01; [3]): 180 nM

Sequence: VWKSGILQLF
Kd (HLA-A*24:02; [7]): 62.6 nM
Kd (HLA-A*29:02; [7]): 2560 nM
Kd (HLA-A*23:01; [7]): 16.5 nM

Sequence: AFKNKRLVF
Kd (HLA-B*08:01; [6]): 1560 nM

Sequence: LMLVALLGAM
Kd (HLA-B*08:01; [8]): 7190 nM

Sequence: SDAHKKNLY
Kd (HLA-A*01:01 [1]; [9]): 1120 nM
Kd (HLA-A*24:02; [9]): ≥ 77500 nM
Kd (HLA-A*30:02; [9]): 1640 nM
Kd (HLA-A*26:01; [9]): ≥ 77900 nM
Kd (HLA-A*29:02; [9]): ≥ 69700 nM
Kd (HLA-A*23:01; [9]): ≥ 77700 nM

Sequence: KSFEIDKGIY
Kd (HLA-A*01:01 [1]; [3]): 780 nM
Kd (HLA-A*24:02; [3]): ≥ 70300 nM
Kd (HLA-A*30:02; [3]): 4.75 nM
Kd (HLA-A*26:01; [3]): 5510 nM
Kd (HLA-A*29:02; [3]): 984 nM
Kd (HLA-A*23:01; [3]): ≥ 70000 nM

Sequence: FSGALDTTSY
Kd (HLA-A*01:01 [1]; [3]): 1310 nM
Kd (HLA-A*24:02; [3]): ≥ 70300 nM
Kd (HLA-A*30:02; [3]): 451 nM
Kd (HLA-A*26:01; [3]): 9150 nM
Kd (HLA-A*29:02; [3]): 678 nM
Kd (HLA-A*23:01; [3]): ≥ 70000 nM

Sequence: RMVMTTTANW
Kd (HLA-A*23:01; [8]): 52.8 nM
Kd (HLA-B*53:01; [8]): 20.5 nM

Sequence: AGFPAGLTY
Kd (HLA-A*01:01 [1]; [10]): ≥ 78100 nM
Kd (HLA-A*24:02; [10]): ≥ 77500 nM
Kd (HLA-A*30:02; [10]): 287 nM
Kd (HLA-A*26:01; [10]): ≥ 77900 nM
Kd (HLA-A*29:02; [10]): 68.9 nM
Kd (HLA-A*23:01; [10]): ≥ 77700 nM

Sequence: FRYVFFEII
Kd (HLA-B*08:01; source organism: Vaccinia virus Copenhagen): 208 nM

Sequence: LATGPLTTLW
Kd (HLA-B*53:01; [4]): 98.4 nM

Sequence: VEMGEAAGI
Kd (HLA-B*44:03): 206 nM
Kd (HLA-B*40:01): 268 nM
Kd (HLA-B*44:02): 26.5 nM

Sequence: NRRRRTAGV
Kd (HLA-B*08:01; [5]): 121 nM

Sequence: LLQMENKAWL
Kd (HLA-B*08:01; source organism: Dengue virus 2 16681-PDK53): 280 nM

Sequence: FCSHHFHQL
Kd (HLA-B*08:01; [4]): 178 nM

Sequence: MFKTKGRYNL
Kd (HLA-A*24:02; [11]): 7170 nM
Kd (HLA-A*29:02; [11]): 68.9 nM
Kd (HLA-A*23:01; [11]): 2070 nM

Sequence: WCSQTDYQYL
Kd (HLA-A*01:01 [1]; [12]): 13100 nM
Kd (HLA-A*24:02; [12]): 15000 nM
Kd (HLA-A*30:02; [12]): 10600 nM
Kd (HLA-A*26:01; [12]): ≥ 69700 nM
Kd (HLA-A*29:02; [12]): 9280 nM
Kd (HLA-A*23:01; [12]): 10800 nM

Sequence: LLEKCDLQNY
Kd (HLA-A*01:01 [1]; [3]): 70.7 nM
Kd (HLA-A*24:02; [3]): ≥ 70300 nM
Kd (HLA-A*30:02; [3]): 7030 nM
Kd (HLA-A*26:01; [3]): ≥ 82800 nM
Kd (HLA-A*29:02; [3]): 3260 nM
Kd (HLA-A*23:01; [3]): ≥ 70000 nM

Sequence: FPRSMLSIF
Kd (HLA-B*08:01; [6]): 9.88 nM

Sequence: MVKPKGKVV
Kd (HLA-B*08:01; [8]): 44.6 nM

Sequence: MMKWIISIL
Kd (HLA-B*08:01; [6]): 1.28 nM

Sequence: LTNDNTSRY
Kd (HLA-A*01:01 [1]; [3]): 1.59 nM
Kd (HLA-A*24:02; [3]): ≥ 77600 nM
Kd (HLA-A*30:02; [3]): 8.9 nM
Kd (HLA-A*26:01; [3]): 6.48 nM
Kd (HLA-A*29:02; [3]): 31.6 nM
Kd (HLA-A*23:01; [3]): ≥ 77800 nM
